“Also recorded” adds a separate entry of the source.
Assays:
Tie2 receptor = target: T1, Tie2 receptor (Mus musculus, UniProt Q02858); assay: Tie2 activation in vivo (Tie2 immunoprecipitation from lung lysates, pY Tie2 western blot); design: species or system CD1 mice; conditions: for time points at which activation of Tie2 (pY Tie2) was evident: pooled lung lysates of three mice
T1 construct: from tissue; host or cells: lung of CD1 mice (in vivo dosing, lung homogenate)
Procedure: The following commercially available antibodies were used: monoclonal anti-Tie2 (Phaminogen), polyclonal anti-Tie2 (Santa Cruz Biotechnology) and monoclonal anti-pY (clone 4G10, Upstate Biotechnology). Lung lysates were prepared and immunoprecipitated in full RIPA buffer (50 mM Tris-HCl, pH 7.4, 150 mM NaCl, 1 mM PMSF, 1 mM EDTA, 5 μg/ml Aprotinin 5 μg/ml Leupeptin, 1% Triton x-100, 1% Sodium deoxycholate, 0.1% SDS). Proteins were resolved in 10% PAGE according to Laemlli and transferred to PVDF membrane for subsequent antibody probing.
Purified Vasculotide was examined for its ability to activate the Tie2 receptor tyrosine kinase in CD1 mice (FIG. 1A). Three mice per group were injected intraperitoneally (IP) with either Vasculotide (500 ng-12.5 μg) or vehicle (PBS) control. After one hour, mice were sacrificed and lung homogenates were prepared for immunoblot analysis. […] This effect is particularly evident when total protein loading is accounted for (see pan Tie2, lower panel). While this may seem somewhat paradoxical, this phenomenon has also been reported by others while investigating the effect of Ang1 on Tie2 activation (Brkovic et al. (2007) J. Leukoc. Biol. 81(4), 1093-1101), Sturn et al. (2005) Microcirculation 12(5), 393-403, Murdoch et al. (2007) J Immunol 178(11), 7405-7411, van der Geer et al. (1994) Ann. Rev. Cell Biol. 10, 251-337, Gruber et al. (1995) Blood 86(7), 2488-2493, Maliba et al. (2008) J. Leukoc. Biol. 83(2), 352-360, and Van Slyke et al. (2009) Tissue Eng. Part A 15(6), 1269-1280).
To assess the duration of Tie2 activation following Vasculotide administration, three mice per time point were injected with 2 μg intraperitoneally (I.P.) or by gavage (P.O.). Lung lysates were prepared from each of the mice at the indicated times following initial dosing (FIG. 1B). Equal quantities of protein from each group were pooled and immunoprecipitated for Tie2 to establish an average Tie2 activation for each group. Activation of Tie2 (see pY Tie2, upper panels) was evident at time points ranging from 24-72 hours in the I.P. injected mice. By 96 hours post injection, the Tie2 receptor phosphorylation had returned to basal (PBS stimulated) levels.

CFU-G = assay: Methocult colony assay (ex vivo bone marrow proliferation and differentiation); assay type: cell-based, CD1 mice; conditions: 1 ng/ml or 10 ng/ml, Methocult M3434, 7 days
Procedure: Bone marrow was flushed from the femur bones of two month old CD1 mice and was suspended in Iscove's Modified Dulbecco's Media (Sigma, St. Louis, Mo.) at a concentration of 1×10^5 per ml. Cells were thoroughly suspended in methocellulose M3434 media (Stem Cell Technologies, Vancouver, BC) such that 1×10^4 cells per 35 mm tissue culture dish were dispensed. Prior to dispensing into the tissue culture dishes either vehicle (PBS) or Vasculotide 1 ng/ml or 10 ng/ml was mixed in. Plates were placed in an incubator at 37° C., 5% CO2 for 7 days without replenishment of vehicle or Vasculotide. […] Using an ex vivo model of bone marrow proliferation and differentiation (methocult), the influence of Vasculotide on bone marrow extracted from the femurs of normal CD1 mice was observed. Bone marrow was disaggregated and resuspended in methocult M3434 media plus Vasculotide (Vasc 1 ng/ml or 10 ng/ml) or control (PBS).

T1 sequence (Q02858 23-1122): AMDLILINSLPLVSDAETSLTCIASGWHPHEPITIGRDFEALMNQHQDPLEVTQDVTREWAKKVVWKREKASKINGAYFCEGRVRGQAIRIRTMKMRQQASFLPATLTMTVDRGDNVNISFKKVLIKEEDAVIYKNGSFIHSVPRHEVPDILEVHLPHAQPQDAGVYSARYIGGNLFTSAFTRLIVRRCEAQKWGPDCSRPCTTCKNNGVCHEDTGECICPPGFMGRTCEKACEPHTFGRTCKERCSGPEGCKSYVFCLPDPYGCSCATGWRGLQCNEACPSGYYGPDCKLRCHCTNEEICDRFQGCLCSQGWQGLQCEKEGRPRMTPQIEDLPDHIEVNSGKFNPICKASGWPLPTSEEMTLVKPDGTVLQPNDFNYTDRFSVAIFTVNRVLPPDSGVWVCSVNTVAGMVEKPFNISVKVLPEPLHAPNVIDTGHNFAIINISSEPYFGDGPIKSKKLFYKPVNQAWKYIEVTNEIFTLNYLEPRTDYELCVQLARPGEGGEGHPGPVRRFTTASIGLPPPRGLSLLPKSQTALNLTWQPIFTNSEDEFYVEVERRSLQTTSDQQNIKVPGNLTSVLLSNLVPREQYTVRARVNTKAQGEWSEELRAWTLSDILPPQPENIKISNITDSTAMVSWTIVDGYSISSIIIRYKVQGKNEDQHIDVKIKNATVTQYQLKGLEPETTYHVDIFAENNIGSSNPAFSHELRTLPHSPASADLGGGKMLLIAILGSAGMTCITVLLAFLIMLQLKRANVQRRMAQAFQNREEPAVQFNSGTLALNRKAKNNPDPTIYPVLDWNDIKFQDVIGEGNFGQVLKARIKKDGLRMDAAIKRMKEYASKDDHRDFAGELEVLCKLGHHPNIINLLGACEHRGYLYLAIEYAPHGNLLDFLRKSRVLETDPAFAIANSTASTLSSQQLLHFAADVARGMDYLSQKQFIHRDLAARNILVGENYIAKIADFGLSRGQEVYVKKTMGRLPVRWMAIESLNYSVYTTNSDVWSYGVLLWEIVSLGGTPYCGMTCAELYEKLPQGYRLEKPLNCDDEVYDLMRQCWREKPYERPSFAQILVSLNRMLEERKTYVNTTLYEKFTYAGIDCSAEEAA

time points at which activation of Tie2 (pY Tie2) was evident (Tie2 receptor; 2 μg I.P.): 24-72 hours | time points at which activation of Tie2 (pY Tie2) was evident (Tie2 receptor; 2 μg I.P., listed as Vasc-PEG): at least 72 hours | time by which Tie2 receptor phosphorylation had returned to basal (PBS stimulated) levels (Tie2 receptor; 2 μg I.P., post injection): 96 h | Tie2 phosphorylation after gavage (oral availability) (Tie2 receptor; 2 μg P.O., two hours post gavage): did not yield increased activation | Tie2 receptor-activating activity at higher doses (Tie2 receptor; I.P. doses above 500 ng up to 12.5 μg, 1 hour): reduced receptor-activating activity | dose that activated Tie2 optimally (pY Tie2) (Tie2 receptor; I.P., 1 hour in circulation, lung homogenates, doses 500 ng-12.5 μg): 500 ng/25-30 g mouse
Substance: Vasculotide: Modified T7 peptide (CHHHRHSF, SEQ ID NO:2) conjugated to 10 kDa tetrameric polyethylene glycol-maleimide; Tie2 binding peptide mimetic
all other populations of cells (colonies) (CFU-G): statistically indistinguishable from PBS control | total CFU-G numbers (CFU-G; vs PBS): statistically significant, dose-dependent reduction; also recorded: dose dependent, statistically significant reduction
